T1: recombinant TMEFF1 (Homo sapiens, UniProt Q8IYR6)
T1 construct: generated to secrete the ECD from CHO cells to assist with biophysical evaluations; His tag (C); made in house; host or cells: CHO (ExpiCHO)
T1 sequence (Q8IYR6 40-330 limits assumed): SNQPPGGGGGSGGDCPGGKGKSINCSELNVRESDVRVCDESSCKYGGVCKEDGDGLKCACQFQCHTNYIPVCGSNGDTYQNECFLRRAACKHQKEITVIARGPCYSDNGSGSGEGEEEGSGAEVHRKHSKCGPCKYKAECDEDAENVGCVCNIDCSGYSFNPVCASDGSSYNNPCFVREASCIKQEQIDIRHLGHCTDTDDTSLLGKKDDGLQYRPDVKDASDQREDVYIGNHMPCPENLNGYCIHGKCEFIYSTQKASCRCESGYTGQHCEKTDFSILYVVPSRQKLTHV


How the values were obtained:
[1] = molecular target: T1, recombinant TMEFF1; assay: Binding competition binning (Octet); details: seven antibodies, 3 bins
Description: Binding competition among different antibodies was determined using a real-time, interferometry assay on an Octet Red™ instrument with Protein A-conjugated biosensors. To assess whether two antibodies competed for binding to a recombinant TMEFF1 protein, the assay was performed as follows. Protein A biosensors were first submerged into wells containing 10 ug/mL of individual monoclonal antibodies for 5 minutes. Following the capture step, the biosensors were dipped briefly (15 seconds) into buffer and then any unoccupied sites on the biosensor were saturated by submerging them for 5 minutes into wells containing 100 ug/mL of an irrelevant monoclonal antibody. The Octet biosensors were then dipped briefly (15 seconds) in buffer before immersion for 1 minute into wells containing recombinant TMEFF1. The biosensors were dipped briefly (15 seconds) in buffer before immersion for 1 minute into wells containing a second recombinant antibody.
For the control case where the second antibody was the same as the first, there was no increase in signal, because there was no additional binding to the recombinant target.
For the control case where buffer was used instead of the first antibody, no recombinant target bound the non-quenching antibody on the biosensor and no second antibody bound the biosensor.
Competition binning using Octet™ was done with seven antibodies and 3 separate bins were identified.

[2] = tested on: hTMEFF1-ECD recombinant deletion mutants; assay: Binding domain determination with hTMEFF1-ECD deletion mutants (Octet); design: species or system human; key: FS1—follistatin domain 1; FS2—follistatin domain 2; details: full length TMEFF1 ECD vs ΔFS1, ΔFS2, ΔFS1&FS2
Source text: TMEFF1 recombinant proteins expressing 3 different deletion mutants, AFS1 (AFollistatin Domain 1), AFS2 (AFollistatin Domain 2) or AFS1&FS2 were used to identify binding domains among different antibodes using an Octet Red instrument with Anti-Penta-His (HIS 1K) biosensors. Expression of the 3 deletion mutants was confirmed by WB analysis. 100 ngs of purified TMEFF1 ECD was run along with unpurified supernatant of transfected CHO cells with the different deletion mutants. HIS 1K biosensors were loaded by submerging the biosensors into wells containing 10 ug/ml of full length TMEFF1 or one of 3 different deletion mutants (AFS1, AFS2 or AFS1&FS2) for 60 seconds. Following the loading step, the biosensors were then dipped for 30 seconds in PBS before immersion for 30 seconds in 200 ul of unpurified recombinant antibodies for 30 seconds. The biosensors were then dipped briefly (30 seconds) in PBS to observe any dissociation. Samples were determined to show binding or no binding by comparing to a control well that contained no recombinant antibody. Differential binding to the deletion mutants allowed for determination of binding sites on TMEFF1 recombinant protein. For cases where the antibody bound all 3 recombinant proteins, the binding is outside of the deleted domains. For the case where binding is observed only on full length TMEFF1 and AFS2, the antibody is binding in the ΔFS1 domain.
26 of the identified antibodies were checked for epitope domain binding by Octet™ using the hTMEFF1-ECD recombinant deletion mutants (see Table 7, below).

[3] = tested on: 293-hTMEFF1 cells; assay: Flow based antibody internalization assay; format: cell-based, human; details: 293-hTMEFF1 fixed with PFA, antibody 1 ug/ml, 30-120 min
Description: For Flow based internalization assay, 293-hTMEFF1 cells were collected and either fixed with 4% paraformaldehyde (PFA) for 20 minutes at 37° C. or kept live on ice. Cells were then incubated on ice for 40 minutes with anti-TMEFF1 antibody at 1 ug/ml, washed 2× with ice cold PBS, resuspended in complete warm media and incubated at 37° C. for 30, 60 or 120 minutes. Live cells were then fixed at those time points, washed 2× with PBS and labeled with fluorescent conjugated secondary antibody for 30 minutes on ice.
Antibody mediated TMEFF1 internalization was evaluated by Flow cytometry with five human anti-TMEFF1 antibodies in 293-hTMEFF1 cells. Fixed cells were treated with the antibody as a control of antibody loss due to detachment rather than internalization which would result in reduce signal. Thus a constant signal over time in fixed cells and a loss of signal in live cells would indicate antibody internalization. […] In live cells, it was observed that most antibodies show about a 50% internalization by 30 min of treatment (FIG. 1B).

Molecule | Competition binning (epitope bin) [1] | Binding region (epitope domain binding) [2] | Cell surface binding in fixed cells over the duration of the assay [3]
24F10: human anti-TMEFF1 IgG1 antibody; VH SEQ ID NO: 33, VL SEQ ID NO: 36 (antibody, V domains shown) VH: QVQLVESGGGVVQPGRSLRLSCAASGFTFSSYGMHWVRQAPGKGLEWVAVIWYDGSDKYYTDSVKGRFTISRDNSKNTLYLQMNSLRAEDTAVYYCARESMVRGIVITFFDYWGQGTLVTVSS VL: EIVMTQSPATLSVSPGERATLSCRASQSVSSNLAWYQQKPGQAPRLLIYGASTRATGIPARFSGSGSGTEFTLTISSLQSEDFAVYSCQHYNNWPPTFGGGTKVEIK | compete with each other and bind FS1 | FS1 | consistent cell surface binding in fix cells
36H6: human anti-TMEFF1 IgG1 antibody; VH SEQ ID NO: 43, VL SEQ ID NO: 47 (antibody, V domains shown) VH: QVQLVESGGGVVQPGRSLRLSCAASGFTFSDYGMHWVRQAPGKGLEWVAVIWYEGGNKYYTDSVKGRFTISRDNSKNTLYLQMNSLRAEDTAVYYCARILLWFGESYGMDVWGQGTTVTVSS VL: DIQMTQSPSSLSASVGDRVTITCRASQGISNYLAWYQQKPGKVPKLLIYAASTLQSGVPSRFSGSGSGTDFTLTISSLQPEDVATYYCQKYNNAPWTFGQGTKVEIK | compete with each other and bind FS1 | FS1 | consistent cell surface binding in fix cells
31B7: human anti-TMEFF1 IgG1 antibody; VH SEQ ID NO: 17, VL SEQ ID NO: 21 (antibody, V domains shown) VH: QVQLVESGGGVVQPGRSLRLSCAASGFTFSSYGMHWVRQAPGKGLEWVAVIWYNGINKYYADSVKGRFTISRDASKNTLYLQMNSLRAEDTAVYYCAREGLLWFGGMDVWGQGTTVTVSS VL: EIVLTQSPLSLPVTPGEPASISCRSSQSLLHSNGYNYLHWYLQKPGQSPQLLIYLGSNRASGVPDRFSGSRSGTDFTLKIIRVEAEDVGVYYCMQALQTPYTFGQGTKLEIK | bind a region different from FS1 or FS2 and compete with each other | other | consistent cell surface binding in fix cells
M1F1: human anti-TMEFF1 IgG1 antibody; VH SEQ ID NO: 9, VL SEQ ID NO: 13 (antibody, V domains shown) VH: QVQLQESGPGLVKPSETLSLTCAVSGYSISSGYFWGWIRQPPGKKLEWIGSIYHSGSTYYNPSLKSRVTMSVDTSKNQFSLKLSSVTAADTAVYYCAREGDCSGGICYWYFDLWGRGTLVTVSS VL: EIVMTQSPATLSVSPGERATLSCRASQSVSSNLAWYQQKPGQAPRLLIYGASTRATGIPARFSGSGSGTEVTLTISSLQSEDFAVYYCQQYNKWPLTFGGGTKVEIK | bind a region different from FS1 or FS2 and compete with each other | Other | 

Source: patent US11312769B2, “Anti-TMEFF1 antibodies and antibody drug conjugates” (Bluefin BioMedicine, Inc., priority 2017, dated 2022)
